Amyloid nucleation score data for 134 substances are collected here from the supplement of paper PMC12042874.

± gives the uncertainty stated by the source.

The first series can be described thus: amyloid nucleation score (Sup35N fusion, yeast selection) (log enrichment); library NNK3; higher = more nucleation; inactive = no reads after selection. The procedure, abridged:
(§1)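 Peptides of 20 random codons, each fused to Sup35N, were expressed in psi-negative yeast. Cells were induced with 100 μM copper sulfate for 24 hours and grown 7 days at 30°C on medium lacking adenine and uracil, and plasmid inserts before and after selection were Illumina-sequenced. Nucleation scores are DiMSum log enrichments of output over input reads, centred on the mode score of non-aggregating sequences, and sequences under 100 input reads were excluded.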
For YNHSMGWVCSAFDAKVRILR, the amyloid nucleation score entry is “inactive”.

In turn, YNLAGVFVIGHGNACATAFR registered an amyloid nucleation score of 0.831 ± 0.3.

Turning to YNMFNTLVDRVQLRGLCYGV, the amyloid nucleation score entry was “inactive”.

For the substance YNPIGFRRLFTPTCLFITKL, the amyloid nucleation score entry is “inactive”.

For YNRADSIRFQ, the amyloid nucleation score result is “inactive”.

For the substance YNSSTTVIDFTF, the amyloid nucleation score entry was “inactive”.

For the substance YNVRSFLTKVEWTYYFS, the amyloid nucleation score came to 0.391 ± 0.16.

On to YPCERYHRPHDQQNVDLTNL, for which the amyloid nucleation score result was “inactive”.

On to YPCEVLGCDAN, for which the amyloid nucleation score entry is “inactive”.

Regarding YPKACVI, the amyloid nucleation score result was “inactive”.

As to YPLYASTS, the amyloid nucleation score is 1.07 ± 0.16.

For YPNDLTRVFDRDNNLLGTHG, the amyloid nucleation score was 0.551 ± 0.32.

For the substance YPWVYLAGYFHFFDELVGIF, the amyloid nucleation score entry is “inactive”.

Take YPYSSVTRNILCVENRCTGW: the amyloid nucleation score entry was “inactive”.

For YQCFVKELYKECISHWARRK, the amyloid nucleation score entry is “inactive”.

As to YQRVHTSCHHELSIHGSSCT, the amyloid nucleation score result is “inactive”.

On to YQSTVFGCYTYSRLKCLRSA, for which the amyloid nucleation score entry was “inactive”.

For the substance YRDRYLDPLWAD, the amyloid nucleation score result is “inactive”.

Turning to YRHPTIECWSKMRCALVVCT, the amyloid nucleation score result was “inactive”.

For YRILRRYSDPAHEDIKRCTL, the amyloid nucleation score result was “inactive”.

In the case of YRILYGWSFMIRLILDVQRE, the amyloid nucleation score result was “inactive”.

For YRLSLRH, the amyloid nucleation score result was “inactive”.

In the case of YRRLCGDCGFGTLRLDLLFV, the amyloid nucleation score result is “inactive”.

Take YRSEGSWHDDSQSKKWWSGV: the amyloid nucleation score result is “inactive”.

For the substance YRTIVVLSNFFNILSFSKNQ, the amyloid nucleation score was 0.718 ± 0.15.

In the case of YRYFGTAAMKRICHRNSIVS, the amyloid nucleation score result is “inactive”.

With YSACSSGVPRCLDMSRATVE, the amyloid nucleation score is -0.055 ± 1.1.

With YSCLRLYATNHVTLWICELK, the amyloid nucleation score result is “inactive”.

YSDIVFILDLGYCAF had an amyloid nucleation score of 1.3 ± 0.091.

Consider YSDTFADNYLNCMHQVKCVN, for which the amyloid nucleation score result was “inactive”.

YSFSRY: the amyloid nucleation score result is “inactive”.

Consider YSGGCGWIMSRNSVRYSCIC, for which the amyloid nucleation score entry was “inactive”.

Take YSGGLWWYWPSECNNAKYVL: the amyloid nucleation score result is “inactive”.

Turning to YSIIVVL, the amyloid nucleation score came out at 1.39 ± 0.087.

Consider YSIMFRVLVGT, for which the amyloid nucleation score entry is “inactive”.

On to YSKCNRIFFTEDLF, for which the amyloid nucleation score is -0.295 ± 0.8.

For the substance YSKRSLDYI, the amyloid nucleation score entry was “inactive”.

For the substance YSLSINCMFRYRSFSDFIDN, the amyloid nucleation score worked out at 0.992 ± 0.2.

Consider YSMFN, for which the amyloid nucleation score result is “inactive”.

Consider YSNSELSGECRLLHKITSD, for which the amyloid nucleation score result was “inactive”.

Consider YSNWKLRRRCYLRDNIFWVI, for which the amyloid nucleation score entry is “inactive”.

As for YSPAK, the amyloid nucleation score entry was “inactive”.

With YSRPMVTL, the amyloid nucleation score entry is “inactive”.

Regarding YSRSQTMSTACNVVYVFSGQ, the amyloid nucleation score result is “inactive”.

In turn, YSSECALWNCRACVLYIHYR came in with an amyloid nucleation score of 1.27 ± 0.16.

For YSSHVPSLHQLDQVSRRVQG, the amyloid nucleation score entry was “inactive”.

As for YSSVILVY, the amyloid nucleation score stood at 0.156 ± 0.48.

Consider YSTPTDMLDLQFDKSASRGV, for which the amyloid nucleation score entry is “inactive”.

In the case of YSVIMPCSNLNWVDMNLTEY, the amyloid nucleation score is -0.169 ± 0.29.

For YSWYEDPWWGERFWP, the amyloid nucleation score entry is “inactive”.

Regarding YSYTILHNFNKCSVKTLIFF, the amyloid nucleation score was found to be 2.38 ± 0.058.

Consider YTAKYGGFISLYR, for which the amyloid nucleation score came out at 0.691 ± 0.15.

On to YTCNST, for which the amyloid nucleation score result is “inactive”.

The substance YTFIIGIKHSTSSFNMSFSM showed an amyloid nucleation score of 0.613 ± 0.25.

Take YTFLSVAFLD: the amyloid nucleation score entry was “inactive”.

Regarding YTFRCIYRADYNTP, the amyloid nucleation score entry was “inactive”.

Regarding YTFRMYGLMDNLHCAPWF, the amyloid nucleation score result is “inactive”.

On to YTLAFECLPSLTMQVRNWMM, for which the amyloid nucleation score entry is “inactive”.

Turning to YTLKCIQVVWLSMPVSVSNV, the amyloid nucleation score result is “inactive”.

Take YTMLSVCGVYICYKVYSMCW: the amyloid nucleation score turned out to be 0.527 ± 0.4.

On to YTQFYSMILDRRFCFNSVEL, for which the amyloid nucleation score entry is “inactive”.

Regarding YTRCNISNMV, the amyloid nucleation score entry is “inactive”.

YTVMFLGANYSYVVKSMSRS: the amyloid nucleation score entry was “inactive”.

YVCGLRRKSLVGKLYSIGLS: the amyloid nucleation score result was “inactive”.

In turn, YVDMP had an amyloid nucleation score of 0.089 ± 0.87.

Take YVFGNWLLCFEHTKMH: the amyloid nucleation score turned out to be 1.1 ± 0.14.

In turn, YVFVCIRPPLVGVHEFNSRS registered an amyloid nucleation score of -0.089 ± 0.56.

On to YVHWLGSALREGDWVLPSAL, for which the amyloid nucleation score result was “inactive”.

In turn, YVIGDVIIFPSSFMINCLYC registered an amyloid nucleation score of 2.4 ± 0.081.

Consider YVILGQDDHEKT, for which the amyloid nucleation score result was “inactive”.

Consider YVSSRNRHYGSPYLGVCVFK, for which the amyloid nucleation score result is “inactive”.

As for YVTGVLDC, the amyloid nucleation score result was “inactive”.

As to YVTHMQLGYLSVMCMEVKRG, the amyloid nucleation score stood at 1.35 ± 0.085.

For YVVRN, the amyloid nucleation score entry was “inactive”.

On to YVVVLMSLHWRNWGALRRTC, for which the amyloid nucleation score entry was “inactive”.

On to YVYWREFGACMGSQQWVVRV, for which the amyloid nucleation score result was “inactive”.

The substance YWDVNQGVYGINYGTVSHS yielded an amyloid nucleation score of 0.256 ± 0.43.

With YWFIAQAYKGRCVGSTVDKR, the amyloid nucleation score result is “inactive”.

Consider YWFSQFVIFGCSS, for which the amyloid nucleation score result is “inactive”.

Consider YWGIDHRIAGYIC, for which the amyloid nucleation score entry was “inactive”.

For YWLSPDKICTYYLVWVRRAP, the amyloid nucleation score result was “inactive”.

For YWQPWVNLDSYRCGHNSQFP, the amyloid nucleation score result was “inactive”.

As for YWSIFTLVVPMRFAFIWS, the amyloid nucleation score result was “inactive”.

Take YWSNSYGIECCRLVQQAPTE: the amyloid nucleation score is -0.132 ± 0.33.

Take YYAATPGSYLAGGRWITLF: the amyloid nucleation score was 0.219 ± 0.47.

For YYDHGNFRCMSTKRPVWQVF, the amyloid nucleation score result was “inactive”.

In turn, YYFPWLYAKYSVVIINDMEP gave an amyloid nucleation score of 2.64 ± 0.05.

Regarding YYFRPVSPRDLSQVDCRTDL, the amyloid nucleation score result was “inactive”.

YYFRRVWTCPLIAQIIKSDL gave an amyloid nucleation score of 0.39 ± 0.71.

On to YYFRRWGHS, for which the amyloid nucleation score result was “inactive”.

For YYHLGLLDVSINEIRT, the amyloid nucleation score result was “inactive”.

For the substance YYIHCVWYNADKVYEG, the amyloid nucleation score worked out at 2.37 ± 0.059.

YYLCYLSVHLSMIGCKEKGR: the amyloid nucleation score result was “inactive”.

YYMRDCSYIHEFGTGVASDR: the amyloid nucleation score result was “inactive”.

As to YYTGFTIFLLRVWLLAGVGS, the amyloid nucleation score result is “inactive”.

YYVVVQADVGNI: the amyloid nucleation score result is “inactive”.

Turning to YYWDKLFCMYKTAHGVSIYV, the amyloid nucleation score entry was “inactive”.

In the case of YYWLLIGLLFRVLLMLVQGK, the amyloid nucleation score entry is “inactive”.

A short description of a further series: amyloid nucleation score (Sup35N fusion, yeast selection) (log enrichment); library NNK2; higher = more nucleation; inactive = no reads after selection. The procedure, abridged:
as §1
AAELLLSSGLVRQHAARRQY yielded an amyloid nucleation score of 0.695 ± 0.26.

In turn, AANWGNRGYMVCEHCVIDV gave an amyloid nucleation score of -0.054 ± 0.46.

In turn, ACCSCIIVFINFTSLFFYRF had an amyloid nucleation score of -0.178 ± 1.1.

In turn, ACGPQPETLSGLMSRGLLRR yielded an amyloid nucleation score of 0.619 ± 0.64.

For ACNVILCVTNPTHNVIV, the amyloid nucleation score amounted to 9.254 ± 0.036.

As to ADGVSSWLTVLTFSHWRVK, the amyloid nucleation score worked out at 1 ± 0.31.

In the case of ADIAWSCRLESNCFPTLSMM, the amyloid nucleation score was determined as 0.255 ± 0.33.

Consider ADLCHTGRGSMRPCETED, for which the amyloid nucleation score result was “inactive”.

On to ADNVGS, for which the amyloid nucleation score was determined as 3.71 ± 0.058.

With AERLRVISGWAAWYAIDTRF, the amyloid nucleation score came out at 3.82 ± 0.11.

Turning to AEWISLQQFLSLQKEFWIKA, the amyloid nucleation score was -0.596 ± 0.76.

AEYSSAKGFD came in with an amyloid nucleation score of -0.794 ± 0.55.

With AFCTVSSCFMSSSLPI, the amyloid nucleation score is 5.3 ± 0.06.

On to AFCWTLWQYLGFS, for which the amyloid nucleation score is 1.35 ± 0.16.

AFDGGIFFSLMSFMLVWMGS came in with an amyloid nucleation score of -0.345 ± 0.56.

On to AFDTTPKC, for which the amyloid nucleation score is 0.275 ± 0.32.

For AFFKR, the amyloid nucleation score came to 0.182 ± 0.38.

Substance AFHWMF returned an amyloid nucleation score of 0.544 ± 0.28.

In turn, AFNARWTEIDVPWRASPAHV showed an amyloid nucleation score of 0.657 ± 0.37.

Substance AFNERAYYVGGLTADME registered an amyloid nucleation score of 0.753 ± 0.43.

As for AFNWIEVCEETSPGSTTEGS, the amyloid nucleation score is 0.318 ± 0.39.

AFPKLRAGSSLLCA showed an amyloid nucleation score of 0.74 ± 0.29.

AFRMLITGPGNS: the amyloid nucleation score was -1.07 ± 0.49.

Turning to AFRSSSPSRVHELRQMKELV, the amyloid nucleation score is 1.14 ± 0.3.

As for AFYGL, the amyloid nucleation score entry is “inactive”.

As for AGDLKRLSSQQLM, the amyloid nucleation score is 4.03 ± 0.051.

As for AGLLYVSRLNWSVSQRNGVG, the amyloid nucleation score came out at 0.131 ± 1.

The substance AGPSCL returned an amyloid nucleation score of 0.537 ± 0.22.

For the substance AGRLYNISNY, the amyloid nucleation score entry is “inactive”.

AGWNLFLEGVYVW showed an amyloid nucleation score of -0.387 ± 1.1.

Turning to AGWNNSMGLDE, the amyloid nucleation score result is “inactive”.

As to AHNDVNGVFLMPVRSLDFKH, the amyloid nucleation score was -1.17 ± 0.64.

AHYIASVDWIFKM registered an amyloid nucleation score of -1.32 ± 0.41.

In the case of AIAAHFGLMPMCYLCTG, the amyloid nucleation score turned out to be 7.25 ± 0.079.

For AIFDTIYC, the amyloid nucleation score was -0.541 ± 1.1.

In turn, AILFSIFISVGRKWLFSASH had an amyloid nucleation score of -1.78 ± 1.1.
